Measurements as given in patent US20240059799A1 (Pfizer, published 2024).
Substitutions are numbered along the chain they refer to.

Experiments:
Test in all cases: SPR, Biacore 8K+, 37 C; antibody captured by anti-human Fc, cytokine injected
human IL-12 = biological target: T1, human IL-12 (human, UniProt P29460 23-328; P29459 23-219)
T1 construct: also called recombinant human IL-12 (p40/p35)
T1 sequence 1: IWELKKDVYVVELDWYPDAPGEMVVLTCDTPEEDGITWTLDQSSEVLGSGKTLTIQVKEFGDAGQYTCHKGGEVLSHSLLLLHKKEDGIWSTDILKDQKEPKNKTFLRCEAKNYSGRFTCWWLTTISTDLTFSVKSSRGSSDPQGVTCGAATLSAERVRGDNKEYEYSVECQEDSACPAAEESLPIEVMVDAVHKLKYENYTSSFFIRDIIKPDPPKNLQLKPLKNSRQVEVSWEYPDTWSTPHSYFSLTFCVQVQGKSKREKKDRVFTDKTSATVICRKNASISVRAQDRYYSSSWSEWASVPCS
T1 sequence 2: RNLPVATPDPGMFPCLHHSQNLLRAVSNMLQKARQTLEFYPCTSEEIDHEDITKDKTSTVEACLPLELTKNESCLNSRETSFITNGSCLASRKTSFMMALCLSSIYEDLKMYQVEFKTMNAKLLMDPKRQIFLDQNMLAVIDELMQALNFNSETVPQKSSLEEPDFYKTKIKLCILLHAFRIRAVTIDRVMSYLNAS
Experimental: (§1) In order to determine binding to TL1A, kinetic assays were conducted at 37° C. using a collection rate of 10 Hz on a Biacore™ T200 instrument (GE Healthcare). […] For the analysis of the p40 binding arm, kinetic assays were conducted at 37° C. using a collection rate of 10 Hz on a Biacore™ 8 K+ instrument (GE Healthcare).

human IL-23 = biological target: T2, human IL-23 (human, UniProt P29460 23-328; Q9NPF7 20-189)
T2 construct: also called recombinant human IL-23 (p40/p19)
T2 sequence 1: T1 sequence 1
T2 sequence 2: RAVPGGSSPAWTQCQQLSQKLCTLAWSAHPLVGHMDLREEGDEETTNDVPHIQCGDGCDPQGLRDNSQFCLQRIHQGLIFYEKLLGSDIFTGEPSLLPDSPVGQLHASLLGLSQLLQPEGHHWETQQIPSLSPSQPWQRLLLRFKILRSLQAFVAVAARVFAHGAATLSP
Experimental: as §1

rat IL-23 = biological target: T3, rat IL-23 (rat, UniProt P43432 23-335; Q91Z84 22-196, limits assumed)
T3 chain 1: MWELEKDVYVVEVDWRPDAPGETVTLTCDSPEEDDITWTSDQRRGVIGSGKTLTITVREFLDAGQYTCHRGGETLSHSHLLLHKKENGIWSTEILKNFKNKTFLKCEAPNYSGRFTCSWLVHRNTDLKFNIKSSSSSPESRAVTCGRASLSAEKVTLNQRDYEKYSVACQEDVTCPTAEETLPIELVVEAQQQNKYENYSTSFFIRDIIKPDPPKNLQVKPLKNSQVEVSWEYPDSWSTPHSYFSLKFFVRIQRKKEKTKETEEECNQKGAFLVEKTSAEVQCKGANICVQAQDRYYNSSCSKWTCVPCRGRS
T3 chain 2: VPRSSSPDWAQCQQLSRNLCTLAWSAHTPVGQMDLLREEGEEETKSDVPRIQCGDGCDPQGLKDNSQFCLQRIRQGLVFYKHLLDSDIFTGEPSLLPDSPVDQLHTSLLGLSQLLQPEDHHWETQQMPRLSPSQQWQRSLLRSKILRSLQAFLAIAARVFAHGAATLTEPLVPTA
Experimental: as §1

rabbit IL-23 = biological target: T4, rabbit IL-23 (rabbit)
T4 chain 1: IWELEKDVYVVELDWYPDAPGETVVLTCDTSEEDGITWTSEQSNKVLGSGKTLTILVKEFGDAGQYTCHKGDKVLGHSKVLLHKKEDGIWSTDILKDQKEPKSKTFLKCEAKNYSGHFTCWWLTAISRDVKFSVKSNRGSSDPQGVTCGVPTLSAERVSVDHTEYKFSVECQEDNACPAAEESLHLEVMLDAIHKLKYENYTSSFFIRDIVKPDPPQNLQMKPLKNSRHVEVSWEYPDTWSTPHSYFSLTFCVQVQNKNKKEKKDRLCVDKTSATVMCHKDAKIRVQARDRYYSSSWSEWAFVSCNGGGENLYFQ
T4 chain 2: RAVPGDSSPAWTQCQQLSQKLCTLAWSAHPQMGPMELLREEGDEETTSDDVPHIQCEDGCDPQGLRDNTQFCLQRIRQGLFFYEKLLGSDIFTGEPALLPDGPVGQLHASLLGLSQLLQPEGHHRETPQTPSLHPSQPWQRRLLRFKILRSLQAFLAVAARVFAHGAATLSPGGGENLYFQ
Experimental: as §1

rabbit IL-12 = biological target: T5, rabbit IL-12 (rabbit)
T5 chain 1: T4 chain 1
T5 chain 2: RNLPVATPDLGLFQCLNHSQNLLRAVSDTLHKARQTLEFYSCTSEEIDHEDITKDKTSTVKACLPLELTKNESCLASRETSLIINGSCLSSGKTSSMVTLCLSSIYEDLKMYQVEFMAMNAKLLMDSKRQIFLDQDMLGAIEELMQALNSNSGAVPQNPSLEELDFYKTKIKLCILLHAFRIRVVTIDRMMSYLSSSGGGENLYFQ
Experimental: as §1

cynomolgus monkey IL-23 = biological target: T6, cynomolgus monkey IL-23 (cynomolgus monkey, limits assumed)
T6 construct: also called cyno IL-23
T6 chain 1: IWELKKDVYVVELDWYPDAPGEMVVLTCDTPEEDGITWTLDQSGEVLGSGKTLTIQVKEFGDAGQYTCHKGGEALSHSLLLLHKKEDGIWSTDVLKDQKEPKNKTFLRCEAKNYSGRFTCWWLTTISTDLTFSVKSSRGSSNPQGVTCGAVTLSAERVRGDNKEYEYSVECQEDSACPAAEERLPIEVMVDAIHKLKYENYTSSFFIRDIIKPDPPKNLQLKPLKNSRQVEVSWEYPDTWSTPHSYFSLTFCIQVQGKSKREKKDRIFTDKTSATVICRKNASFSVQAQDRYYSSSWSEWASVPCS
T6 chain 2: T2 sequence 2 with T12A, H75R, L131P
Experimental: as §1

Kd (human IL-12): 0.123 nM
koff (human IL-12): 0.000258 s⁻¹
kon (human IL-12): 2.1e+06 M⁻¹ s⁻¹
Kd (human IL-23): 0.104 nM
koff (human IL-23): 0.000294 s⁻¹
kon (human IL-23): 2.82e+06 M⁻¹ s⁻¹
binding result (rat IL-23): no binding (tested: 200 nM)
binding result (rabbit IL-23): no binding (tested: 200 nM)
binding result (rabbit IL-12): no binding (tested: 200 nM)
Kd (cynomolgus monkey IL-23): 0.281 nM
koff (cynomolgus monkey IL-23): 0.000542 s⁻¹
kon (cynomolgus monkey IL-23): 1.93e+06 M⁻¹ s⁻¹
B1: p40TL1A-0033 bispecific antibody (bispecific antibody, human IgG1, kappa)
heavy: EVQLVQSGAEVKKPGESLKISCKGSGYSFTTYWLGWVRQMPGKGLDWIGIMSPVDSDIRYSPSFQGQVTMSVDKSITTAYLQWNSLKASDTAMYYCARRRPGQGYFDFWGQGTLVTVSSASTKGPSVFPLAPSSKSTSGGTAALGCLVKDYFPEPVTVSWNSGALTSGVHTFPAVLQSSGLYSLSSVVTVPSSSLGTQTYICNVNHKPSNTKVDKKVEPKSCDKTHTCPPCPAPEAAGAPSVFLFPPKPKDTLMISRTPEVTCVVVDVSHEDPEVKFNWYVDGVEVHNAKTKPREEQYNSTYRVVSVLTVLHQDWLNGKEYKCKVSNKALPAPIEKTISKAKGQPREPQVCTLPPSREEMTKNQVSLWCLVKGFYPSDIAVEWESNGQPENNYKTTPPVLDSDGSFFLYSKLTVDKSRWQQGNVFSCSVLHEALHSHYTQKSLSLSPGK
light: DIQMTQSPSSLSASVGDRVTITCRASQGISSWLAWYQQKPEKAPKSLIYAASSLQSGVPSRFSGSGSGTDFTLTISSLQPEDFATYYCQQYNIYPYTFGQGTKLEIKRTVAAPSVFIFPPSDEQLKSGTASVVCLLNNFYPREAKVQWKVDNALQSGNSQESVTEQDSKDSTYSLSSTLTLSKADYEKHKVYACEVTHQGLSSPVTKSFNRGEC
chain 1: not shown
chain 2: QVQLVQSGAEVKKPGASVKVSCKASGYDYTYYGISWVRQAPGQGLEWMGWISTYNTGTHYAPSLQGRVTMTTDTSTSTAYMELRSLRSDDTAVYYCARESYYGSGAFRGGMDVWGQGTTVTVSSASTKGPSVFPLAPSSKSTSGGTAALGCLVKDYFPEPVTVSWNSGALTSGVHTFPAVLQSSGLYSLSSVVTVPSSSLGTQTYICNVNHKPSNTKVDKKVEPKSC
notes: Single cell KiH, modified Fd format; IgG1 effector-function-minimized Fc with LS mutations
